Data reported in paper PMC6667623, “Regulation of Glutarate Catabolism by GntR Family Regulator CsiR and LysR Family Regulator GcdR in Pseudomonas putida KT2440” (mBio, 2019).

Key:
[1] = molecular target: T1, CsiR (Pseudomonas putida KT2440) (UniProt Q88IU1); experiment: EMSA; details: 10 mM Tris-HCl pH 7.4, 50 mM KCl, 0.5 mM EDTA, 10% glycerol, 1 mM DTT; 30 C, 30 min; 6% native PAGE at 4 C
T1 sequence: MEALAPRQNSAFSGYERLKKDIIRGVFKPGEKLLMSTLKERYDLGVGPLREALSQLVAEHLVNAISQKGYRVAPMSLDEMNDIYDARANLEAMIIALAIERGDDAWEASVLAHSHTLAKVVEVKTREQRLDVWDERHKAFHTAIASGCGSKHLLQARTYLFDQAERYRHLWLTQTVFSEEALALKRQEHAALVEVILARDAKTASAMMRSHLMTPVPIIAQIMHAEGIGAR

[2] = molecular target: T2, GcdR (Pseudomonas putida KT2440) (UniProt Q88RH3); experiment: EMSA; details: 10 mM Tris-HCl pH 7.4, 50 mM KCl, 0.5 mM EDTA, 10% glycerol, 1 mM DTT; 30 C, 30 min; 6% native PAGE at 4 C
T2 sequence: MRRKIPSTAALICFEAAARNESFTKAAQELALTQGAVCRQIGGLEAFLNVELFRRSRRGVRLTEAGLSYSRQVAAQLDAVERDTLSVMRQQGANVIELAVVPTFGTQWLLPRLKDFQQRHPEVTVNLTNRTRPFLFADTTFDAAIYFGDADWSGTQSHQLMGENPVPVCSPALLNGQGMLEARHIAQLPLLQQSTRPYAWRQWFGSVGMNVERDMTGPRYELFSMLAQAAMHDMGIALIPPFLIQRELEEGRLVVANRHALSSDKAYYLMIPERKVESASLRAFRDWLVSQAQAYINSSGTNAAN

[3] = molecular target: His6-tagged GcdR of P. putida KT2440 (Pseudomonas putida KT2440) (UniProt Q88RH3); experiment: SEC; Superdex 200 10/300 GL gel filtration of purified GcdR against molecular mass standards, compared with SDS-PAGE; buffer A (20 mM sodium phosphate, 500 mM sodium chloride, pH 7.4), 0.5 ml min^-1
[4] = molecular target: the molecule itself; experiment: SEC; Superdex 200 10/300 GL gel filtration of purified CsiR against molecular mass standards, compared with SDS-PAGE; buffer C (50 mM sodium phosphate, 150 mM sodium chloride, pH 7.2), 0.5 ml min^-1

Molecule: GATCCTGTTCCTCAAAACGTTTTGCCGATCATACCGAAACCCTCTGCTGACGAAAAACAATGGACAAACACGAGTAGTGTCGTTGAAAAATAAAAATGTAGACATTTTCAGTTAGTGGCGATATTTTTACCTCGCCCGCACTGATCCAGGTCATGACCGGACGGCGCCATCTACTTTTTTAGCCAGGACACTGCC (double strand) [F1 (csiR-csiD intergenic region)]
- binding [1]: binds

Molecule: GCCGCCTCGAAGCAAATCAGGGCGGCGGTACTGGGGATCTTACGGCGCATGTACGTCAACCTCACTTGTAAGGCTGTCAATAAGGCGTTTTGCCGATTTACGGAGTGACAAAATATCACTAATCGGTGCGCAATCCTCGTTTGTCGCCGCAGCCGATCAGGCCTAGGCTCAAAGGCACAAGAAACTGACCCCTATTTCGAGGATTCGCTCATGGTCGGTAAAGCAAGTTTCAACTGGATCGACCCGTTGCTGCTGGATCA (double strand)
- binding [2]: binds

Molecule: His6-tagged GcdR of P. putida KT2440 (from UniProt Q88RH3 1-305) (natural protein)
- stoichiometry N [3]: 4

B1: His6-tagged CsiR protein of P. putida KT2440 (natural protein, Pseudomonas putida KT2440, UniProt Q88IU1 1-231, looked up)
chain: MEALAPRQNSAFSGYERLKKDIIRGVFKPGEKLLMSTLKERYDLGVGPLREALSQLVAEHLVNAISQKGYRVAPMSLDEMNDIYDARANLEAMIIALAIERGDDAWEASVLAHSHTLAKVVEVKTREQRLDVWDERHKAFHTAIASGCGSKHLLQARTYLFDQAERYRHLWLTQTVFSEEALALKRQEHAALVEVILARDAKTASAMMRSHLMTPVPIIAQIMHAEGIGAR
notes: CsiR, GntR family transcriptional regulator of Pseudomonas putida KT2440, encoded by csiR (pp2908); gene amplified from genomic DNA with primers csiR-F/csiR-R and cloned BamHI/HindIII into pETDuet-1; Cloning into the BamHI/HindIII sites of pETDuet-1 would usually give an N-terminal His tag (surmise); No tag cleavage is described; also called GntR family regulator CsiR; source: E. coli BL21(DE3) …
- stoichiometry N [4]: 2
